Measured values reported in patent publication US6214569A, “Methods for screening for inhibitors of Alzheimer β-peptide filament formation” (President and Fellows of Harvard College, priority 1997, dated 2001).
“Also recorded” adds a separate entry of the source.

T1: α1 -ACT (Homo sapiens, UniProt P01011)
T1 sequence (P01011 24-423): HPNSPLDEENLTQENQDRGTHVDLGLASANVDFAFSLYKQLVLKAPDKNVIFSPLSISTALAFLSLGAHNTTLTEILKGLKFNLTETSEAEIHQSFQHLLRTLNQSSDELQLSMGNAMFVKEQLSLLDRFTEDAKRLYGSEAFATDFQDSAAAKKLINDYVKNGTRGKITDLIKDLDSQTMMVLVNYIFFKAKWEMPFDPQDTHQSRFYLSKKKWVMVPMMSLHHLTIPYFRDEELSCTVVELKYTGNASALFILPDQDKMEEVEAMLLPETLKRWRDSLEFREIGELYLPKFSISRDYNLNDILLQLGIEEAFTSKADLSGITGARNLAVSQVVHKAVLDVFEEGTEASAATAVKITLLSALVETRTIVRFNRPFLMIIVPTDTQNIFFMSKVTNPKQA


Legend:
[1] = target: T1, α1 -ACT; conditions: disclosed in U.S. Ser. No. 08/179,574; cited from earlier work
[2] = target: T1, α1 -ACT; conditions: disclosed in U.S. Ser. No. 08/179,574; cited from earlier work; remark: listed apart in the source
[3] = target: T2, Aβ1-42 (Homo sapiens, UniProt P05067); assay: Aβ filament formation quantitated by electron microscopy (filament crossovers); format: biochemical; conditions: molar ratio 4:1, 18 hours
Description: At 18 hours, filaments were applied to carbon-coated Formvar on 200 mesh copper grids, dried, negatively stained with 3% uranyl acetate and visualized in a JEOL-100CX electron microscope. Many small and a few large filaments were visible in the electron micrograph and are representative of the products of this polymerization reaction.
The degree of filament formation was analyzed using electron microscopy. The reaction mixture was diluted with water or buffer. A Formvar-coated copper electron microscope grid was touched briefly to a droplet of the reaction mixture, allowing the filaments to stick to the Formvar plastic film. This procedure was also performed with Formvar which was precoated with carbon prior to the sticking of the filaments to the surface. The filaments were then stained with either a solution of uranyl acetate or sprayed ("shadowed") with a heavy metal such as platinum to allow their visualization.
The Aβ1-42 peptide was incubated in the presence of purified Apolipoproteins E2, E3 and E4 and α1 -ACT, ApoAI and ApoAII at a molar ratio of 4:1, as described in Examples 1 and 2. Electron microscopic examination of the reaction products was used to quantitate the amount of Aβ filament formation from the reaction of Aβ with ApoE3, ApoE4 or α1 -ACT. Five randomly chosen electron micrographs of each reaction product after 18 hours of incubation as in Examples 1 and 2 were analyzed by counting the number of crossovers that the filaments underwent with each other. This provides a measure of both the number and length of the amyloid filaments per unit area of the grid. […] The formation of Aβ filaments was inhibited when ApoE4 was incubated with Aβ in the presence of ApoE2 and equimolar amounts of ApoE4 and ApoE2 were used. Reducing the amount of Aβ filament formed to levels produced by the control protein, BSA (see FIG. 3).

[4] = test system: human cortical neurons; assay: Neurotoxicity of Aβ filaments formed with promoting factors, MTT assay (Example 4); format: cell-based; conditions: applied day 12, MTT day 16
Description: Certain promoters of the assembly of Aβ filaments of amyloid filaments formed in vitro also result in these filaments being neurotoxic. This was determined by using fetal human cortical tissue from 18-22 week gestation were used for this study. The protocol obtaining postmortem fetal tissue complied with all federal guidelines for federal research. The cortical cell culture were prepared as follows. The frontal and temporal lobes were removed from fetal brain. Cells were disassociated in calcium and magnesium free Hank's balanced salt solution containing 0.2% […] for 10 minutes at room temperature, and subsequently disassociated in serum-containing Dulbecco's Modified Eagle Medium (D-MEM) with DNase (0.2 mg/ml) for three times. The cells were plated onto laminin (10 μg/ml) coated 96-well plate ([…]) in a neuronbasal medium supplemented with B27 (Gibco), 2 mM glutamine and 1x antibiotic antimycotic solution and kept in a humidified 5% CO2 atmosphere. […]
The products of the reactions shown in FIG. 3 were both applied to two or three sister cultured wells on day 12. Cell viability was evaluated by morphological criteria and colorimetric MTT (Tetrazolium) on day 16. […] The plates were read on a BT 1000 microreader, using a test wavelength of 550 nm, a reference wavelength of 650 nm. The plates were routinely read within 20 minutes of addition of DMSO.

[5] = test system: primary human cortical neurons; assay: Promotion of Aβ1-42 neurotoxicity by pathological chaperones, MTT assay (Example 12); format: cell-based; conditions: Aβ1-42 80 μM with 0.4 μM protein, 48 hours at 22° C.; MTT on day 4
Description: Biosynthetic Aβ1-42 (80 μM) was incubated with ACT (CalBiochem), purified human apoE and individual control protein (0.4 μM) in 100 μl of 10 μM Tris-HCl, pH 7.0 for 48 hours at 22° C. The 12.5 μl of each reaction product was then added to 14 days old primary human cortical neurons in culture. The cell viability was measured by a colorimetric MTT (Sigma) assay on day 4. Data are expressed ±S.E.M. in FIGS. 7-9. ACT and apoE4 induced a 2- and 4-fold increase in neurotoxicity of Aβ1-42, respectively. […] Since Aβ1-42 is prone to self-aggregate into filaments, only aliquots of each preparation of Aβ1-42 devoid of filaments, as judged by electron microscopy, were used for experiments.
Method of cell culture: The cortical neuron cultures were prepared as follows. Frontal lobes of brain were removed from an electively terminated human fetus on gestational age of 18-21 weeks. Cortical cells were dissociated in serum-free medium containing 0.2% trypsin (Sigma) and 25 μg/ml DNase I (Sigma) and plated 4×10^4 cells per well (96-well plate, Falcon) precoated with 10 μg/ml laminin (Gibco). The cells were cultured in DMEM (Gibco) supplemented with 10% fetal calf serum (Gibco) and 2 mM glutamine. Cultures were kept at 37° C. in a 7% CO2 atmosphere. After day 4 in vitro, non-neuronal cell division was halted by exposure to 10^-5 M cytosine arabinoside. […]

[6] = target: T2, Aβ1-42; assay: Aβ filament assembly monitored by light scattering; format: biochemical; conditions: Aβ1-42 80 μM, molar ratio 200:1, light scattering
Description: Biosynthetic Aβ1-42 was incubated at a concentration of 80 μM in 100 μl of 10 μM Tris-HCl; pH 7.0 at 22° C. for 8, 24 and 48 hours. Assembly of Aβ into high molecular weight filamentous structures was monitored by light scattering at […]. Light scattering increases linearly according to the size and number of filaments formed. The results are shown in FIG. 1 and indicate that Aβ peptide spontaneously forms amyloid filaments, starting after about 8 hours of incubation; the rate of formation levels off after about 24 hours. The Aβ1-42 was incubated, as described in Example 1, in the presence or absence of α1 -antichymotrypsin or a control protein (BSA) at a molar ratio of 200:1. Filament assembly was monitored by light scattering. The results are shown in FIG. 2 and indicate that α1 -ACT results in the rate of filament formation being enhanced about ten-fold over the controls. Formation of filaments was essentially complete after about 8 hours.

T2 sequence (P05067 672-713): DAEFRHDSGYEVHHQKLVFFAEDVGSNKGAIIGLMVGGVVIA

Molecule	promotion of Aβ filament formation (in words) [3]	neurotoxicity of the reaction mixture of Aβ plus the substance [4]	further results
Aβ1-28: peptide corresponding to amino acids 1-28 of the N-terminal of Aβ peptide	–	–	complex formation with α1-ACT [1]: form stable complexes; effect on the ability of α1-ACT to inhibit chymotrypsin [2]: suppress the ability of α1 -ACT to inhibit chymotrypsin
ApoAII: Apolipoprotein AII	inactive	–	–
Aβ: Alzheimer's β-peptide, 39-42 amino acid peptide; biosynthetic Aβ1-42 used in the examples [reference compound]	–	neurotoxic	–
ApoAI: Apolipoprotein AI	inactive	–	–
α1 -ACT: protease inhibitor α1-antichymotrypsin, amyloid associated protein (protein, UniProt P01011 24-423, looked up) Alpha-1-antichymotrypsin: HPNSPLDEENLTQENQDRGTHVDLGLASANVDFAFSLYKQLVLKAPDKNVIFSPLSISTALAFLSLGAHNTTLTEILKGLKFNLTETSEAEIHQSFQHLLRTLNQSSDELQLSMGNAMFVKEQLSLLDRFTEDAKRLYGSEAFATDFQDSAAAKKLINDYVKNGTRGKITDLIKDLDSQTMMVLVNYIFFKAKWEMPFDPQDTHQSRFYLSKKKWVMVPMMSLHHLTIPYFRDEELSCTVVELKYTGNASALFILPDQDKMEEVEAMLLPETLKRWRDSLEFREIGELYLPKFSISRDYNLNDILLQLGIEEAFTSKADLSGITGARNLAVSQVVHKAVLDVFEEGTEASAATAVKITLLSALVETRTIVRFNRPFLMIIVPTDTQNIFFMSKVTNPKQA	promote the formation of Aβ filaments	greatest neurotoxicity	increase in neurotoxicity of Aβ1-42 [5]: 2 fold; enhancement of the rate of Aβ filament formation over the controls [6]: at least ten; also recorded: about ten
